Measured values from PMC9638941, “Molecular basis of dual anti-CRISPR and auto-regulatory functions of AcrIF24” (Nucleic Acids Research, 2022).
Numbering of substitutions follows the chain as printed.

Tests used:
[1] = target: T1, AcrIF24 R16W (Pseudomonas aeruginosa prophage, UniProt A0AA82WNY5 1-228, R16W); assay: EMSA; 1 uM protein; EMSA-P: 10 mM HEPES pH 7.5, 1 mM MgCl2, 20 mM KCl, 1 mM TCEP, 5% glycerol, 30 min on ice; 10% native 0.5x TBE gel, SYBR Gold; Cascade EMSA buffer not in material; conditions: protein: recombinant; chain copies: 2; label: none (SYBR Gold stain); blunt
T1 sequence: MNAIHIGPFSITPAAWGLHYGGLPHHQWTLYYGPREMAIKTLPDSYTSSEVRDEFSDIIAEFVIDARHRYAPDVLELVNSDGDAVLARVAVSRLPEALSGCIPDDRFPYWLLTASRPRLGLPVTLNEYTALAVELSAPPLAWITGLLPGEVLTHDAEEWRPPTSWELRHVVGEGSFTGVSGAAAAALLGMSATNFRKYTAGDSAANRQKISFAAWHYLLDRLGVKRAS

[2] = target: T2, AcrIF24 S45Y (Pseudomonas aeruginosa prophage, UniProt A0AA82WNY5 1-228, S45Y); assay: as above; conditions: protein: recombinant; chain copies: 2; label: none (SYBR Gold stain); blunt
T2 sequence: T1 sequence with W16R, S45Y

[3] = target: T3, AcrIF24 R207W (Pseudomonas aeruginosa prophage, UniProt A0AA82WNY5 1-228, R207W); assay: as above; conditions: protein: recombinant; chain copies: 2; label: none (SYBR Gold stain); blunt
T3 sequence: T1 sequence with W16R, R207W

[4] = target: T4, AcrIF24 K197Y (Pseudomonas aeruginosa prophage, UniProt A0AA82WNY5 1-228, K197Y); assay: as above; conditions: protein: recombinant; chain copies: 2; label: none (SYBR Gold stain); blunt
T4 sequence: T1 sequence with W16R, K197Y

[5] = target: T5, AcrIF24 Y128K/Y217W (Pseudomonas aeruginosa prophage, UniProt A0AA82WNY5 1-228, Y128K;Y217W); assay: EMSA; EMSA-P: 10 mM HEPES pH 7.5, 1 mM MgCl2, 20 mM KCl, 1 mM TCEP, 5% glycerol, 30 min on ice; 10% native 0.5x TBE gel, SYBR Gold; Cascade EMSA buffer not in material; conditions: protein: recombinant; label: none (SYBR Gold stain); blunt
T5 sequence: T1 sequence with W16R, Y128K, Y217W

[6] = target: T2, AcrIF24 S45Y; assay: EMSA; native PAGE; EMSA-P: 10 mM HEPES pH 7.5, 1 mM MgCl2, 20 mM KCl, 1 mM TCEP, 5% glycerol, 30 min on ice; 10% native 0.5x TBE gel, SYBR Gold; Cascade EMSA buffer not in material; conditions: protein: recombinant; chain copies: 2; label: none (SYBR Gold stain); blunt
[7] = target: T3, AcrIF24 R207W; assay: as above; conditions: protein: recombinant; chain copies: 2; label: none (SYBR Gold stain); blunt
[8] = target: T4, AcrIF24 K197Y; assay: as above; conditions: protein: recombinant; chain copies: 2; label: none (SYBR Gold stain); blunt

B1: IR-S (dsDNA)
DNA 1: TAGCTCGATTCGAGCTA
DNA 2: TAGCTCGAATCGAGCTA
binding result [1]: binds
binding result [2]: binds
binding result [3]: no binding
binding result [4]: no binding

B2: IR-L (dsDNA)
DNA 1: CAGAATATCATTGCATAGCTCGATTCGAGCTAATATAGTAATACCAACAGCGCGGCACACCGCCAGCACTGAACCT
DNA 2: AGGTTCAGTGCTGGCGGTGTGCCGCGCTGTTGGTATTACTATATTAGCTCGAATCGAGCTATGCAATGATATTCTG
binding result [5]: no binding
binding result [6]: binds
binding result [7]: no binding
binding result [8]: no binding
